The results in this text go back to patent publication US20100047928A1 (CANON, published 2010).

The target in the experiment is T1, Soluble hen egg-white lysozyme proteins (HEL; Seikagaku Corp. code No. 100940) (hen, UniProt P00698 19-147).
T1 construct: Bought protein, soluble; also called HEL proteins; target substances
Nature of the experiment: sandwich on gold/glass slide: immobilised fusion, 500 nM HEL, FITC-labelled anti-HEL polyclonal antibodies, fluorescence microscopy. Here is the method:
200 μl of 500 nM HEL proteins is added dropwise as target substances to the neighborhood of the boundary region between the gold layer and the glass layer of the slide glass completely washed in the step (ii). The slide glass is covered with a cover glass. After reaction at room temperature for 30 minutes, the slide glass is washed with each buffer. Next, 1 ml of 100 nM FITC-labeled HEL polyclonal antibodies was spotted thereonto and incubated in a moisture chamber. Then, the slide glass is washed with each buffer. FITC fluorescence at 520 nm is observed with a fluorescence microscope.

T1 sequence (P00698 19-147): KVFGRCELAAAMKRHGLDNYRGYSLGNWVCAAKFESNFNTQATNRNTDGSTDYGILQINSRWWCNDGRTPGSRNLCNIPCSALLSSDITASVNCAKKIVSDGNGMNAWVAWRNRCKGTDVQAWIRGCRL

B1: fusion protein of HEL-binding scFv (HyHEL10), Au-binding peptide region and SiO2-binding peptide region (scFv)
scFv: DIVLTQSPATLSVTPGNSVSLSCRASQSIGNNLHWYQQKSHESPRLLIKYASQSISGIPSRFSGSGSGTDFTLSINSVETEDFGMYFCQQSNSWPYTFGGGTKLEITAGGGGSGGGGSGGGGSDIQLQESGPSLVKPSQTLSLTCSVTGDSITSDYWSWIRKFPGNRLEYMGYVSYSGSTYYNPSLKSRISITRDTSKNQYYLDLNSVTTEDTATYYCANWDGDYWGQGTLVTVSAAGGGGSGGGGSGGGGSMHGKTQATSGTIQSMHGKTQATSGTIQSMHGKTQATSGTIQSMHSASGSGGGGSGGGSGGGSEGGGSEGGGSGGGSGSIPMHVHHKHPHVIPMHVHHKHPHV
notes: Secreted from E. coli by the pelB signal of pET-20b(+); In the assays it stood immobilised on a gold/glass substrate; also called target substance capturing body; sc-Fv-HyHEL10 fusion; not shown: His tag used for metal chelate purification (pET-20b(+) vector)
For the molecule B1, the binding result was “binds”.
